Source: patent US8581042B2, “Polypeptides having beta-glucosidase activity and polynucleotides encoding same” (Novozymes A/S, priority 2010, dated 2013)

Legend:
[1] = PCS hydrolysis assay (1-gram ground-sieved, unwashed PCS), cellulose conversion; type: biochemical; settings: supplemented; 50 and 55° C., pH 5.0
Protocol: Corn stover was pretreated at the U.S. Department of Energy National Renewable Energy Laboratory (NREL) using dilute sulfuric acid. The conditions used for the pretreatment were 0.048 g sulfuric acid/g dry biomass at 190° C. and 25% w/w dry solids for around 1 minute. The water-insoluble solids in the pretreated corn stover (PCS) contained 52% cellulose, 3.6% hemicellulose and 29.8% lignin. Cellulose and hemicellulose were determined by a two-stage sulfuric acid hydrolysis with subsequent analysis of sugars by high performance liquid chromatography using NREL Standard Analytical Procedure #002. Lignin was determined gravimetrically after hydrolyzing the cellulose and hemicellulose fractions with sulfuric acid using NREL Standard Analytical Procedure #003. […] The protein concentration was determined using a BCA Reagent Kit (Pierce, Rockford, Ill., USA).
Penicillium oxalicum GH3 beta-glucosidase (1.5 mg/g cellulose) was added to CELLUCLAST® 1.5L (15 mg/g cellulose) for a total loading of 16.5 mg protein/g cellulose. […] After 72 hour incubation at 50 and 55° C., samples were mixed well, centrifuged at 3000 rpm for 5 minutes, and supernatants were filtered using a 0.45 μm MULTISCREEN® 96-well filter plate (Millipore, Bedford, Mass., USA) and filtrates analyzed for sugar content as described below. […]

[2] = Specific activity on pNPG; type: biochemical; settings: 40° C., pH 5, 20 minutes
Protocol: (§1) Specific activity. 4-Nitrophenyl-beta-D-glucopyranoside (pNPG) was dissolved in DMSO to produce a 100 mM stock solution. Right before assay, the 100 mM pNPG stock solution was diluted 100-fold in 50 mM sodium acetate pH 5 with 0.01% TWEEN® 20 to 1 mM pNPG. Enzyme was diluted to a wide range of concentrations in the same buffer. To 20 μl of the enzyme dilutions (a range of concentration), 100 μl of the 1 mM pNPG solution were quickly added. The reaction was incubated at 40° C. for 20 minutes before the reaction was stopped with 50 μl of 1 M sodium carbonate pH 10, and the absorbance at 405 nm was measured for 4-nitrophenolate production. The specific activity of the Penicillium oxalicum GH3 beta-glucosidase on pNPG was determined to be 72.3±1.7 IU/mg, where […] produce 1 μmole of glucose per minute at 40° C., pH 5.

[3] = Thermostability: residual activity on pNPG after incubation; type: physicochemical; settings: 1 g/L, pH 5
Protocol: as §1
Thermostability. The Penicillium oxalicum GH3 beta-glucosidase was diluted in 50 mM sodium acetate pH 5 with 0.01% TWEEN® 20 to 1 g/L, and then incubated at 50° C. for 3 days, and 60° C. for 3 hours or 24 hours. The same sample was stored at 4° C. to serve as control. After incubation, the residual activity of the samples was measured using pNPG as substrate, following the same assay protocol described above, but using one enzyme loading which yielded less than 5% conversion. The activity of the sample in 4° C. was normalized to 100%, and the activities of samples at other incubation conditions were compared to the 4° C. activity. The thermostability of the Penicillium oxalicum GH3 beta-glucosidase is shown below.

[4] = pH activity profile on pNPG; type: biochemical; settings: Britton Robinson buffer, 50° C.
Protocol: as §1
pH profile. The pH activity profile of the Penicillium oxalicum GH3 beta-glucosidase was determined using the same protocol described above, except the beta-glucosidase was incubated at four different pHs (4, 5, 6, and 7) and one enzyme loading was used, which yielded less than 5% conversion. Britton Robinson buffer (100 mM) was used as the buffer system. The 100 mM Britton Robinson buffer was titrated to a various pH values in the range of 4-7 using 5 M sodium hydroxide and then diluted to 40 mM with deionized water. The pNP-glucose was prepared in the same buffer, and the activity was measured at 50° C. The highest activity was normalized to 100%, and activities at the other pH values were compared to the highest activity and expressed in % activity. The pH profile of the Penicillium oxalicum GH3 beta-glucosidase is shown below.

B1: Penicillium oxalicum GH3 beta-glucosidase: Family GH3 beta-glucosidase of Penicillium oxalicum strain IBT5387 (SEQ ID NO: 2), expressed in Aspergillus oryzae and purified (protein, listed as Penicillium oxalicum)
chain: MRSSTTVLAFVSYGSFGIAAAKPIQEHKPELLNSFHGFQIEEPYSPPFYPSPWMNPRAEGWEDAYQKALAFVSQLTLLEKVNLTTGVGWENGPCVGNTGSVPRLGFKGLCLQDSPQGVRFADYASAFTSSQMAAATFDKTVLYERGVAMAQEHKGKGITVQLGPVAGPLGRAPEGGRNWEGFSPDPVLNGIAMAETIKGMQDTGVLACAKHYVGNEQEHFRQAGESAGHGYNIAESISSNIDDRTMHEMYLWPFADAVRAGVASFMCSYNQINNSYGCQNSHTLNKLLKSELGFQGFVMSDWQAQHSGVSSALAGLDMTMPGDTEFDTGLSFWGSNLTIAVLNGTVPEWRIDDMAMRIMAAYFKVGLTIEDQPDVNFNSWTYDTYGYKYFYSKEGYEKVNWHVDVRANHAQQIRETAAKGTVLLKNTNGALPLKRPSFVAVVGEDAGPNPKGPNGCPDRGCDEGTLAMGWGSGSTQFPFLVTPDSAIQAKVLEYGGRYESILDNYDESAISALVSQPDATCIVFGNSDSGEAFITVDGNWGDRNNLTLWQNADAVIRNVSALCSNTIVVLHTVGPVLLTDYYEHPNITAIVWAGLPGEESGNALVDILWGDVNPAGRTPFTWAKSREDYGTDVMYVPNNGEQAPQQSFSEGIFLDYRHFDQAGIDPIYEFGHGLSYTNFSYSDLRIVTKHVRPYRPTTGMTTQAPIIGPLPSPNLTEYQFPATFKYIPAFIYPYLNSTESLRAASKDPHYGSTAFIPPHALDSSPQPLNPAGDPIASGGNSMLYQELYEITAKITNTGNLAGDEVVQLYVNLGGDNPPRQLRGFDRIHLLPGQSKVFRATLTRRDLSNWDVAAQNWRIIRSAKEVYVGRSSRDLPLSARLESW
- effect on CELLUCLAST 1.5L in PCS hydrolysis [1]: synergistic effect
- specific activity on pNPG [2]: 72.3±1.7 IU/mg
- Residual activity on pNPG ([3]; incubation 4° C. (control, normalized to 100%)): 100%
- Residual activity on pNPG ([3]; incubation 50° C., 72 hours): 100%
- Residual activity on pNPG ([3]; incubation 60° C., 3 hours): 100%
- Residual activity on pNPG ([3]; incubation 60° C., 24 hours): 100%
- Residual activity on pNPG ([3]; incubation 70° C., 24 hours): 76%
- Activity (relative to highest activity) ([4]; pH 4.0): 38%
- Activity (relative to highest activity) ([4]; pH 5.0): 99%
- Activity (relative to highest activity) ([4]; pH 6.0): 100%
- Activity (relative to highest activity) ([4]; pH 7.0): 36%
